Our source for the Kd, koff and kon values is publication PMC13625576.

Experiment in all cases: SPR
A general note: Surface plasmon resonance follows binding to a sensor surface in real time, without labels.

Assay [1] addresses 14A Fab G32R mutant (mouse).
Assay [2] addresses 16A Fab W34F mutant (mouse).
Assay [3] addresses 16A Fab R32G mutant (mouse).

Usually Kd stands for the free concentration of one partner at which half of the binding sites on the other are occupied at equilibrium, for simple one-to-one binding. Read a high Kd as a looser complex. By koff is commonly meant the first-order rate constant of dissociation. Higher therefore signals a short-lived complex. Usually kon stands for the rate constant with which the complex forms. A higher kon goes with fast association. In assay [1], “Ser-glycosylated MUC1 peptide RPAPGS(GalNAc)TAPPAHG” yielded a dissociation constant Kd of 128 nM, a dissociation rate constant (koff) of 0.0229 s⁻¹ and a kon of 180000 M⁻¹ s⁻¹. In assay [2], this substance showed a dissociation constant Kd of 3910 nM, a koff of 0.337 s⁻¹ and a kon of 86200 M⁻¹ s⁻¹. Further, in assay [3], the Kd turned out to be 168 nM, the off-rate constant (koff) worked out at 0.0294 s⁻¹ and the kon turned out to be 174000 M⁻¹ s⁻¹.
In the case of “Thr-glycosylated MUC1 peptide RPAPGST(GalNAc)APPAHG”, the koff was found to be 0.00159 s⁻¹ in assay [1], 0.09 s⁻¹ in assay [2] and 0.00823 s⁻¹ in assay [3]. Also, the on-rate constant (kon) came to 314000 M⁻¹ s⁻¹ in assay [1], 73600 M⁻¹ s⁻¹ in assay [2] and 359000 M⁻¹ s⁻¹ in assay [3]. Besides, the Kd in assay [2] amounted to 1220 nM; in assay [3], 22.9 nM.
Take “doubly glycosylated MUC1 peptide RPAPGS(GalNAc)T(GalNAc)APPAHG”: in assay [1], the Kd was found to be 4.5 nM, the koff stood at 0.00137 s⁻¹ and the kon was 303000 M⁻¹ s⁻¹. In addition, in assay [2], the Kd came out at 1130 nM, the off-rate (koff) is 0.0901 s⁻¹ and the kon was 79700 M⁻¹ s⁻¹. In assay [3], this substance showed a dissociation rate constant (koff) of 0.00183 s⁻¹ and a kon of 534000 M⁻¹ s⁻¹.
Consider nonglycosylated MUC1 peptide …, for which, in assay [1], the dissociation constant (Kd) was found to be 122 nM, the koff came out at 0.0233 s⁻¹ and the association rate constant (kon) is 191000 M⁻¹ s⁻¹. Moreover, in assay [2], the Kd was 3430 nM, the koff was 0.295 s⁻¹ and the kon came to 86200 M⁻¹ s⁻¹. In assay [3], the Kd turned out to be 326 nM, the koff turned out to be 0.0532 s⁻¹ and the kon was found to be 163000 M⁻¹ s⁻¹.
